This note sets out measurements from publication doi:10.1101/2020.10.19.346148.

One data set addresses DNA-PKcs (human? (HeLa cells), UniProt P78527 1-4128). As to the kind of experiment: cryo-EM structure.
The target of another data set is DNA-PKcs;Ku70;Ku80 (human? (HeLa cells);human?;human?, UniProt P78527;P12956;P13010 1-4128;1-609;1-732, ||). The data set is described as follows: cryo-EM structure.

Chain of DNA-PKcs (P78527 whole entry): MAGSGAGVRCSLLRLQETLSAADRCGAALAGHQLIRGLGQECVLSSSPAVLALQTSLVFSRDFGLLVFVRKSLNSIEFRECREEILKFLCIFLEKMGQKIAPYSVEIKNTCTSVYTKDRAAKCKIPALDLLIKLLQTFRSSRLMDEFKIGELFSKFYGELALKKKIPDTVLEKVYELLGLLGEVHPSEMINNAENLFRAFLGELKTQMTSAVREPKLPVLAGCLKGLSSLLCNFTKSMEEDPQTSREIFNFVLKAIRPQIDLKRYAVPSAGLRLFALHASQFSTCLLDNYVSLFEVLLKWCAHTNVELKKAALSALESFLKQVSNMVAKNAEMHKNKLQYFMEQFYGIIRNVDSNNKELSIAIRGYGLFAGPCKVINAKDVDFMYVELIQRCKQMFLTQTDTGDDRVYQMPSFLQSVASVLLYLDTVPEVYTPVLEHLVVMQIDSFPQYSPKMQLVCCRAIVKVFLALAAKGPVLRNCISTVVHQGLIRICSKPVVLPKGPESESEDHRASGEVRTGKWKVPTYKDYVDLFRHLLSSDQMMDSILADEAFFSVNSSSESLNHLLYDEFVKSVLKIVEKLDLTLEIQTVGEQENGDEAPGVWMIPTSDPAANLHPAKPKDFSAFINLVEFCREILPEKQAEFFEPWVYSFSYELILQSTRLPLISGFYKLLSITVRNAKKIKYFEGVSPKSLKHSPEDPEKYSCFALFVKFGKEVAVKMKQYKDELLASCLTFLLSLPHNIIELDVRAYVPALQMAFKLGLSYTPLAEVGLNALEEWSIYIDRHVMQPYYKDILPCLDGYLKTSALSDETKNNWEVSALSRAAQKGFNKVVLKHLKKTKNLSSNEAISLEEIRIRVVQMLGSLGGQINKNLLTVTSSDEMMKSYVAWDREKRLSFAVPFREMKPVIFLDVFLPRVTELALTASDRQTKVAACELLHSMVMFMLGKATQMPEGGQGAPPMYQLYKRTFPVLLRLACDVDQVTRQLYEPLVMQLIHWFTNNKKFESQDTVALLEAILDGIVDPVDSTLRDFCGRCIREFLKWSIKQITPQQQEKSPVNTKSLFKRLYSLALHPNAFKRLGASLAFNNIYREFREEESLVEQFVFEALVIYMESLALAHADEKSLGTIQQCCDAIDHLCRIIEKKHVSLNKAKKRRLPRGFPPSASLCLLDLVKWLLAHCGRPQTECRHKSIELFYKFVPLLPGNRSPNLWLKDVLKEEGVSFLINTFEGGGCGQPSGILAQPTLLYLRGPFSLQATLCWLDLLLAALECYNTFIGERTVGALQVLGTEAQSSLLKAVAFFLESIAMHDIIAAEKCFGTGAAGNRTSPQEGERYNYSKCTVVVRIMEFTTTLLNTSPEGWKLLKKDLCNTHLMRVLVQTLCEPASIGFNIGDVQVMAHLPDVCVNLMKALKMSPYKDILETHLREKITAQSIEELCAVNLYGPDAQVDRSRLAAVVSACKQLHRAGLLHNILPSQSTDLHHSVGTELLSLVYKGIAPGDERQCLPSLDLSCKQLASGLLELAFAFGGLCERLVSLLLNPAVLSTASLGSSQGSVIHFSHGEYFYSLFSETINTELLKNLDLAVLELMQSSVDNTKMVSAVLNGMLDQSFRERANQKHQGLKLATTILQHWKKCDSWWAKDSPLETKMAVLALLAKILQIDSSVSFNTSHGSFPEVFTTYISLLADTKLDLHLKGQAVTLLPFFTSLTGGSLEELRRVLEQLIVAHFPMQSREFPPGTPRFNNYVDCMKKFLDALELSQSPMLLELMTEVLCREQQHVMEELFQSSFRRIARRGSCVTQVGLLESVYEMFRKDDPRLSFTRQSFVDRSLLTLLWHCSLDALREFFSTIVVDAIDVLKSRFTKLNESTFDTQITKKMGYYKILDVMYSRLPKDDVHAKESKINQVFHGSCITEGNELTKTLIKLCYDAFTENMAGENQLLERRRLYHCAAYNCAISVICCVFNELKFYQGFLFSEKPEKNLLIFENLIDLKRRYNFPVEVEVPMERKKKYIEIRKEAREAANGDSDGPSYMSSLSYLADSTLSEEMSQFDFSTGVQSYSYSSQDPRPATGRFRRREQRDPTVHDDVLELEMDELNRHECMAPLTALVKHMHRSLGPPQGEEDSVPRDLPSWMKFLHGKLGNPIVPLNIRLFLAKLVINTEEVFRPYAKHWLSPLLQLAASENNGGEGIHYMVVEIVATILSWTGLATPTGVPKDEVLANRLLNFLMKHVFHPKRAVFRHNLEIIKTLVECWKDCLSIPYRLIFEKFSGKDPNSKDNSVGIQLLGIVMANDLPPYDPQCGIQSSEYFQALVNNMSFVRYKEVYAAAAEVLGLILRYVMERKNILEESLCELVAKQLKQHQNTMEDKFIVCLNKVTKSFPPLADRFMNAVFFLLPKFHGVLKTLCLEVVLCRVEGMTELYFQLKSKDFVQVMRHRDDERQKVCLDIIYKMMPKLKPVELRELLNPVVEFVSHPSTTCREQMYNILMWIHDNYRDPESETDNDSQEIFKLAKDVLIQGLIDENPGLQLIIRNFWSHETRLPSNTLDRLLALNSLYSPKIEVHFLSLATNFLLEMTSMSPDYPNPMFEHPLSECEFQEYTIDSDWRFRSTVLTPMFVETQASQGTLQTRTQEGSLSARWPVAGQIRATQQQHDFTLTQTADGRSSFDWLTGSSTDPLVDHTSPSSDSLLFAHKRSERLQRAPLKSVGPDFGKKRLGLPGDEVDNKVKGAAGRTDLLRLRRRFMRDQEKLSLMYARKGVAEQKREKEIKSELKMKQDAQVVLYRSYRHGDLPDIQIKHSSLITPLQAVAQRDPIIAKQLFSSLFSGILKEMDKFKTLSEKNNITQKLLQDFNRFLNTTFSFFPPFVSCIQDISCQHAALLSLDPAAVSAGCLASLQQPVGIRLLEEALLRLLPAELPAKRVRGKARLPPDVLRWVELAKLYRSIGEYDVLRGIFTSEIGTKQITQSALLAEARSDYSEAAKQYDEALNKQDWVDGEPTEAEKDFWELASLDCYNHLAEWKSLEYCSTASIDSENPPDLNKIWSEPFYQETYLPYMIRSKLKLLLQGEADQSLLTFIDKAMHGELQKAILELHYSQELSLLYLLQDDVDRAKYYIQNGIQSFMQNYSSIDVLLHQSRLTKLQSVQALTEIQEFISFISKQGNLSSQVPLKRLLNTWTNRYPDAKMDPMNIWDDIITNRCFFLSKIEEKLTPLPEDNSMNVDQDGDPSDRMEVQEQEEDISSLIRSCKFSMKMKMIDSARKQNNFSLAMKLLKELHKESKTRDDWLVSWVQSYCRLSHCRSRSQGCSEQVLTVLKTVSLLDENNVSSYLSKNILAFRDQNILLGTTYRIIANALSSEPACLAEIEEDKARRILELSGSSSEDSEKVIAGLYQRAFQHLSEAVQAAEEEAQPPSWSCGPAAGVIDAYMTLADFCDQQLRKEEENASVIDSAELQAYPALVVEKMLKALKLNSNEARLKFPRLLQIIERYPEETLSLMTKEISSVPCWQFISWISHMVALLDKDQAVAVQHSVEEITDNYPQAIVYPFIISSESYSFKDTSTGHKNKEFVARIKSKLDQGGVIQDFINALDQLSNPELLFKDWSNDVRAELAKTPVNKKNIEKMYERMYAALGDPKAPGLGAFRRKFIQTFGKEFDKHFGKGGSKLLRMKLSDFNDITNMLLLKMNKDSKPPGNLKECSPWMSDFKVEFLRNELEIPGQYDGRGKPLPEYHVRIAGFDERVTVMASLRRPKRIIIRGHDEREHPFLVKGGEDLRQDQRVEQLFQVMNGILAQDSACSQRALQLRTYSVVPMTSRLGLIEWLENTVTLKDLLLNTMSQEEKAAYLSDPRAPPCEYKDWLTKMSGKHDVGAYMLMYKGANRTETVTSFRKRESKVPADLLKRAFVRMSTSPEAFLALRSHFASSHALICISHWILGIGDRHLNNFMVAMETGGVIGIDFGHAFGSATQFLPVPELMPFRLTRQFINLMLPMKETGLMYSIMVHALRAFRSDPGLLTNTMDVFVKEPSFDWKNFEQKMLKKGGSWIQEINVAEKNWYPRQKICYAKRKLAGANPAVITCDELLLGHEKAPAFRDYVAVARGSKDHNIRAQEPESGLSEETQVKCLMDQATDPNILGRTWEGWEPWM

B1: 40 bp blunt DNA with two internal nicks (dsDNA)
DNA 1: GCATGCTCTACTGCTTCGATATCG
DNA 2: AAGCAGTAGAGCATGC
DNA 3: GCATGCTCTACTGCTTCGATATCG
DNA 4: AAGCAGTAGAGCATGC
As to B1, the binding result in the data set with DNA-PKcs and with DNA-PKcs;Ku70;Ku80 was “binds” each time.
